{"source": "the DeepSol protein solubility set"}
{"test": "soluble on expression in E. coli; label from the status in PepcDB or PDB records"}
{"sequence": "IPGKDVAVTAGRVVFQNHLIELIQYEAQTKTVYKEPILILPAWIMKYYILDLSPHNSLVKWLVKQGHTVFIISWRNPDKEDCDLGMDDYYRLGAMAAIDMVSTILPETKINLMGYCLGGTLAMITASMMGRYEDERLNCLTLLAAQGDFSEAGELMLFVNESQVDFLKSMMWEQGYLDTKQMAGSFQMLRAYDLIWSKMVQDYMHGMRRGMIDLTAWNADATRMPYKMHSEYLEKLFLNNDFAEGRYMVEGKSVAAENIQCPIFAVSTKKDHVAPWQSVYKIHLMTEENVTFVLTGGGHN", "soluble on expression in E. coli": "not soluble"}
{"sequence": "IPLARTVRCNCIHIDDGPVRMRAIGKLEIIPASLSCPRVEIIATMKKNDEQRCLNPESKTIKNLMKAF", "soluble on expression in E. coli": "soluble"}
{"sequence": "ISASEDMFEDEDLIPRQNVVITLTHHGYIKRLPISTYRSQKRGGRGIQGMGTNEDDFVQHLFTTNSHHTILFFTNKGKVYRLKGYEIPELGRTAKGIPIINLLQIEQDEYISTIIPIEEFTED", "soluble on expression in E. coli": "soluble"}
{"sequence": "ISGQKEFEEKPLESKEKYQDLFNLIEQAVQIGEIVFDENGRSIDNIILDVNLAYEKHSGLRREQVIGRGFKEIFPIVEQRWLDRYGEVVRTGMGMHFEEYNASLDRWFEVFASPMGSNRFIAVFSDIT", "soluble on expression in E. coli": "not soluble"}
{"sequence": "ITLKVAIYPYVPDPARFQAAVLDQWQRQEPGVKLEFTDWDSYSADPPDDLDVFVLDSIFLSHFVDAGYLLPFGSQDIDQAEDVLPFALQGAKRNGEVYGLPQILCTNLLFYRKGDLKIGQVDNIYELYKKIGTSHSEQIPPPQNKGLLINMAGGTTKASMYLEALIDVTGQYTEYDLLPPLDPLNDKVIRGLRLLINMAGEKPSQYVPEDGDAYVRASWFAQGSGRAFIGYSESMMRMGDYAEQVRFKPISSSAGQDIPLFYSDVVSVNSKTAHPELAKKLANVMASADTVEQALRPQADGQYPQYLLPARHQVYEALMQDYPIYSELAQIVNKPSNRVFRLGPEVRTWLKDAKQVLPEALGLTDVSSLAS", "soluble on expression in E. coli": "soluble"}
{"sequence": "IVRACRFMAERQIGALIVIERQQNIEDLIEGCIYLDAYITAELIITIFYPLTPLHDGAVVIRDDRIAFASCVLPLSKNPELPKKYGTRHRAAVGITEMSDAVAIVVSEETGEISVAVEGNI", "soluble on expression in E. coli": "soluble"}
{"sequence": "KAFLEDMKKYAETFLEPWFKAPNKGTFQIVYKSRNNSHVNREEVIRELAGIVCTLNSENKVDLTNPQYTVVVEIIKAVCCLSVVK", "soluble on expression in E. coli": "soluble"}
{"sequence": "KARGNVGFVAGSSYGTGSVWTRNNEVVVLTASHVVGRANMATLKIGDAMLTLTFKKNGDFAEAVTTQSELPGNWPQLHFAQPTTGPASWCTATGDEEGLLSGEVCLAWTTSGDSGSAVVQGDAVVGVHTGSNTSGVAYVTTPSGKLLGADTVTLSSLSKHFTGPLTSIPKDIPDNIIADVDAVPRSLAMLIDGLSNRE", "soluble on expression in E. coli": "soluble"}
{"sequence": "KDFTWNTGVTYSMNKNKILTLADNAINPITREKFSISSLNMGGLGSTRFILKEGGSMGDIYSLMDLKRDANGAVYIDENNSVVTESLEANNYIKLGSVLPKGNLAWRNNFSWKNINVAFLVSARLGGVVFSRTQAVLDNFGVSEASAAARDKGYVSVNGNDRVNPEGWYSVVAGGTAVPQYYIYSATNIRLQEASIGYTIPRKWLGNVCDIKVSLIGRNLWMIYNKAPFDPESVASTDNFYQGIDYFMMPSLRNIGFNLSFKF", "soluble on expression in E. coli": "not soluble"}
{"sequence": "KDLKIVMLTDIHLGKNLHENFLDKLITKVNLQSPDMVVIVGDLIDTNPKDLKNYISKLNDFNSTYGTFYALGNHEYYHGINEVLDLLRKHTNMKILVNQNLDLGFIDIAGLGDLAGLDRGLYAPDLARIKVDLNTSKASILLTHQPKTALLYDLSDFDLVLSGHTHGGQIFPFMFLV", "soluble on expression in E. coli": "not soluble"}
{"sequence": "KEAMRMLMREELEKVLKTLSPREAMVLRMRYGLLDGKPKTLEEVGQYFNVTRERIRQIEVKALRKLRHPSRSKYLKSLLSLMDENEG", "soluble on expression in E. coli": "soluble"}
{"sequence": "KFSPEFGIFMNIGASKIFTKTEVDQNEYSYLVDFRTIKGDIFLDFEAIFQLGVKNNINNNIVTGLTSLLEIGYSPYIISTKYEGESDSIYYIFTDRVILYSLVLGALEKIVFNNFSIGIGAGVLFPISGFAASNHPRNIISVMPSENLSIISPYNSKLDYAYIKKLFKVPVAPYIKITAEYAFKPYKIDNAEMDFVLGAYLSYNFGMQYDVSVLNSNIPKQGDNGLIIPGISSKDMFYKYDYSNLDFGVTFGVSFRALE", "soluble on expression in E. coli": "not soluble"}
{"sequence": "KGGVWRNTEDEILKAAVMKYGKNQWSRIASLLHRKSAKQCKARWYEWLDPSIKKTEW", "soluble on expression in E. coli": "soluble"}
{"sequence": "KINDFSIKHGLTEKFVVSFAGTLGFSQDMEVIIRAANELKEYKDIVFIIVGNGVRLEESKKLAESLNLQNIRFIPSVPREIYPLVLHSSDVSLATLTKDVKTPVVPSKILSIMSAGIPVIAVMNLEGDAPKLVEKANAGFAIPAGDYKSLAEKILLLYKNPELRESLGRNGRRY", "soluble on expression in E. coli": "not soluble"}
{"sequence": "KKGYEVLRDPHLNKGMAFTLEERQQLNIHGLLPPCFLGQDAQVYSILKNFERLTSDLDRYILLMSLQDRNEKLFYKVLTSDIERFMPIVYTPTVGLACQHYGLAFRRPRGLFITIHDRGHIATMLQSWPESVIKAIVVTDGERILGLGDLGCYGMGIPVGKLALYTACGGVKPHQCLPVMLDVGTDNETLLKDPLYIGLRHKRIRGQAYDDLLDEFMEAVTSRYGMNCLIQFEDFANANAFRLLHKYRNKYCTFNDDIQGTASVAVAGLLAALRITKNRLSDHTVLFQGAGEAALGIANLIVMAMQKEGVSKEEAIKRIWMVDSKGLIVKGRASLTPEKEHFAHEHCEMKNLEDIVKDIKPTVLIGVAAIGGAFTQQILQDMAAFNKRPIIFALSNPTSKAECTAEQLYKYTEGRGIFASGSPFDPVTLPSGQTLYPGQGNNSYVFPGVALGVISCGLKHIGDDVFLTTAEVIAQEVSEENLQEGRLYPPLVTIQQVSLKIAVRIAKEAYRNNTASTYPQPEDLEAFIRSQVYSTDYNCFVADSYTWPEEAMKVK", "soluble on expression in E. coli": "soluble"}
{"sequence": "KKLDLLITGVGGQGAILASDIIGKAAVISGIPIRAAETHGMAQRGGSVVNHIRLGSDLGSMIPKKGADIMLALEPMEAVRYLDFLKDGGVIIVNTQSIIPVTVTSGLSKYPEVQEILDALSEKYVVKAFNADELAHEAGSRLAMNVAMVGAVSGYLPISKEVLLESVKVLVPKKTIEINIRAFEMGREEVEE", "soluble on expression in E. coli": "not soluble"}
{"sequence": "KKLKKIVNSYINLGFEVTTKRETIQIDDLVPTQATVYEDELYGRAYELKRGLAEPIIVIKTNNNEKYILVDGHHRAVAACLSDIKELEAHVLEIDTDKKMGIEKTAEKQGLKSLSDIKILDEDKMNCSSAYKLKANILEM", "soluble on expression in E. coli": "not soluble"}
{"sequence": "KLTKSDLDILNSMKNVVDGIARMYGEHTEVVLHSLDAEAPEIIKIANGHVTERSEGAPITNLARMKLREGKDVSDSYLTKTSNGKTLHSITTIVRNPKNKPIGLLCINVDMDAPMQAFLKAMLPQQHTECCVGGAR", "soluble on expression in E. coli": "not soluble"}
{"sequence": "KMKNWIKTVCFLLWTCVMCTACIDDDVEEGTVDLQTGESIPVFSVVMDDGQIITSETLKGEVSLIVFFHTGCPDCRKELPVLQKIYTDYGRRIRMVCISREESSAEIVRYWDENHLTLPYSAQENRTVYYQFAKSGIPRVYVIDKELVIRSVFTDNPLASYEDLAEAITASL", "soluble on expression in E. coli": "not soluble"}
{"sequence": "KNNINKTRMNDLNREETRLKTFTDWPLDWLDKRQLAQTGMYFTHAGDKVKCFFCGVEIGSWEQEDQPVPEHQRWSPNCPLLRRRTTNNVPINAEALDRILPPISYDICGANDSTLE", "soluble on expression in E. coli": "soluble"}
{"sequence": "KPAKPAAKSIVTLDVKPWDDETNLEEMVANVKAIEMEGLTWGAHQFIPIGFGIKKLQINCVVEDDKVSLDDLQQSIEEDEDHVQSTDIAAMQAL", "soluble on expression in E. coli": "soluble"}
{"sequence": "KQLEKDLLASAETLQRERHQIANALESEIKTELCDLYMDKADFKVVFTKGKFNRDGNEQVEFYISTNPGEGFKPLVKVASGGELSRLMLAIKSAFARKEDKTSIVFDEVDTGVSGRVAQAIAQKIHKIGSYGQVLAISHLPQVIAIADYQFFISKESDNETTVSRVRLLTPEERVEEIAKMLAGDNLTDAALSQARALLKVDEPV", "soluble on expression in E. coli": "not soluble"}
{"sequence": "KRRIRQLELQVRMLEADKERLERELSRLRSEMSRLRQPPAFAGSVIEVLDDDRAIVQNYNGPRFVVRIAPWIDKSKLRPGTRVALDQRTMAIIEILPASKDPAVLGFEVVERPN", "soluble on expression in E. coli": "not soluble"}
{"sequence": "KSIRLAKEKESQADYISTYVEWQYIDKNITQCFDKMTNMKLEVAWKAKKKDTVVQIHNQDFTVDLSTNTATAPQGQTFTVQRLVKA", "soluble on expression in E. coli": "soluble"}
{"sequence": "KTEIHGDSTKATLEEGQQLTLTFISTKLDVAVGSCHSLVANFLDGFLKFQTGSNSAFDVVEVEEPAGPAVLTIGLGHKGRLAVVLDYTRLNAALGSAAYVVEDSGCSSSEEVSFQGVGSGATLVVTTLGESPTAVSA", "soluble on expression in E. coli": "soluble"}
{"sequence": "KYVDGFLIPIAKDKVNKYREIAQKSSQIWKDLGALEYYECIGDDLDIEELVSFKKVVNASEEETVIFSWIVYESKEQRDKVNEAVMNDPRMKEMMETSEYDLFDYRRMSYGGFKTLVSL", "soluble on expression in E. coli": "not soluble"}
{"sequence": "LADYGRTAAVNRVEMRDTELGIVTAGVSYQYVREVFPNASVLKLGMVYPLPMDLIREFASKVTKLIVVEELDAFIEDQVKAAGISVTGKEAIPLCGELTPGRLRAAFGIPGAPQVTVENLPGRPPNMCPGCPHRGVFFTLNQLKAYVTGDIGCYTLGFMPPLNAMDTCVCMGASISSASGIVRVLSDEEKKKVVAVIGDSTFLHTGVNSLMEMAYNKAPATVVILDN", "soluble on expression in E. coli": "not soluble"}
{"sequence": "LALIAGTGALPEELVARLSEPPLVCAMEGFAPERLAVDIPFPIEHLGSLVADLKARGVSEICLAGAVGRPAVDPARIDAATLPLVPVIQQALTSGDDGALRAVMGIFENAGLTVRAAHEIAPDLLMPAGCPTKAQPEPAELADARRGAEIVAAMSAADIGQACVVHRGQALAVESVFGTNWMLGSLGQRPDAGGGVLFKAPKPDQDRRADLPTIGPDT", "soluble on expression in E. coli": "not soluble"}
{"sequence": "LCPDPDDDEGLIVSDSDGMIVDVTEPLPRVTGYSKSELLGMETAALFWLRDGDNHSGHTRAPVSETEGRSHGLLECADGSRITVEQRSYTVRPEAETHVCTTVLFPGDGE", "soluble on expression in E. coli": "not soluble"}
{"sequence": "LDARFSDAESNSGLTKATTDTLEAYLDVNEDGTWEVDNFLKKSVDKQHGWMQIIDSEGNTDYSYGVPKDVPGTYTKKELLSIYKTKKLHNYKLNYWAINIEDKSYLLLSGWKSKSEQLLTSVEKREQKIDSLAHYKSSTIDYIKRKKGAIYLLDSNGKILDSINSTKSERKTMNQLELLKYSSKPWNYKREISVKILNKDRWMVATVPNPVYVTDQEFNKSFLK", "soluble on expression in E. coli": "not soluble"}
{"sequence": "LDSLNELAVFVDTELKIIWANKAALEYMNMGLEKAIGVCLKVAPGISGPLVEHLNLEEIFTTGEKKSGEYTAQDGRVWFAQAIPVPDEQGKIIGILQTCRDVT", "soluble on expression in E. coli": "not soluble"}
{"sequence": "LEKMQAHGLDKVEYKVCTNPGMEPDSLNKIASGGELSRISLAIQMITAQKGSTPTLLFDEVDVGIGGSTAALVGKMLRKLGERLQVFCVTHQPQVAASAHHHFLVTKHSNNNQTFTHISLLKASDKIAEIARMMGGLTITEQTLSHAKELISLSNE", "soluble on expression in E. coli": "not soluble"}
{"sequence": "LFAAIVDNLSDGIYVLQDDRVVYLNERFAQLFGHGDAGSLLMRELDDILPHGEGKEIVGRIHAELLAGEPSSVAWGQPFAHMDGTPVWLEMEARRIRLNGRPAILGVCHDRT", "soluble on expression in E. coli": "not soluble"}
